In patent US20050053913A1:

Target: AD-E2F1 (GAL4-AD fused to AA 159-437 of E2F1) (yeast; human) (UniProt P04386)
Experiment: cell-based or functional assay

- growth on medium lacking histidine with 3AT (GAL1:HIS3 reporter): < 100 mM 3AT
Substance: DB-DP1 (GAL4-DB fused to DP1) (from UniProt P04386 1-147; Q14186 1-410)
